{
  "source": "patent US20070196354A1",
  "about": "“Method of treating diabetes by inhibiting degradation of at least one of crebl1, atf6, and hnf-4 alpha by htra” (priority 2003, published 2007)",
  "molecules": {"B1": {"name": "mature HtrA2: SEQ ID NO: 4; mature protein generated from HtrA2 precursor by cleavage of N-terminal 133 residues, has protease activity (protein, listed as Homo sapiens)", "chain": "MAVPSPPPASPRSQYNFIADVVEKTAPAVVYIEILDRHPFLGREVPISNGSGFVVAADGLIVTNAHVVADRRRVRVRLLSGDTYEAVVTAVDPVADIATLRIQTKEPLPTLPLGRSADVRQGEFVVAMGSPFALQNTITSGIVSSAQRPARDLGLPQTNVEYIQTDAAIDFGNSGGPLVNLDGEVIGVNTMKVTAGISFAIPSDRLREFLHRGEKKNSSSGISGSQRRYIGVMMLTLSPSILAELQLREPSFPDVQHGVLIHKVILGSPAHRAGLRPGDVILAIGEQMVQNAEDVYEAVRTQSQLAVQIRRGRETLTLYVTPEVTE", "modifications": "mature HtrA2"}},
  "target": "T1, ATF6 (Homo sapiens, UniProt P18850)",
  "T1 construct": "expressed in transfected cells; host or cells: HEK293T",
  "T1 sequence (P18850 1-670)": "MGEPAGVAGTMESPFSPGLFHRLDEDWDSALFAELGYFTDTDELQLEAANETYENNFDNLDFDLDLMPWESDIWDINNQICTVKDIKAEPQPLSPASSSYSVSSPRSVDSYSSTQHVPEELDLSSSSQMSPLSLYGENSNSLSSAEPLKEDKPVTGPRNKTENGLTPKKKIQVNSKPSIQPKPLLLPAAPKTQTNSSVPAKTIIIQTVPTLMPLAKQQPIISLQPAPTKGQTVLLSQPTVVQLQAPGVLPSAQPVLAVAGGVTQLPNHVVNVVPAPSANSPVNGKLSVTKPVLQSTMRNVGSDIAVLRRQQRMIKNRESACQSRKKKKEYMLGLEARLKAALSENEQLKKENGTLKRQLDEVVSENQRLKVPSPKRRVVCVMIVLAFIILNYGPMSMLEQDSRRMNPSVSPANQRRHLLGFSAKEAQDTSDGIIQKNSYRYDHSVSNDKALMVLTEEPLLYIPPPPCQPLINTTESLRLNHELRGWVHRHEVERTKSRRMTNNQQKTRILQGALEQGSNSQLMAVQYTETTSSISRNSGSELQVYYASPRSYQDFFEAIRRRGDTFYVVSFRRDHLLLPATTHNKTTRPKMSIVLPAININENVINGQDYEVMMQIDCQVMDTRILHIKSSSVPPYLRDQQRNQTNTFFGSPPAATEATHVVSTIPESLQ",
  "experiment": "In vitro protease assay, ATF6 captured on resin",
  "type": "biochemical",
  "conditions": "50 μg/ml, 37° C., four hours (4 h) or overnight (O/N), anti-c-Myc detection",
  "experimental": "CREBL1 and ATF6 which were captured on the resin were used in the experiments in order to eliminate the influence of proteinaceous impurities contained in the soluble fractions prepared from the cells obtained by transfecting an expression plasmid of CREBL1 or ATF6. Three hundreds μl of each soluble fraction of CREBL1 and ATF6 was dispensed to six tubes (Nos. 1 to 6), followed by adding 20 μl of protein G sepharose 4 FF (Amersham) of 50% slurry that had been subjected to blocking with BSA, to each of tubes, subjected to overturned mixing at 4° C. for 1 hour, and then subjected to centrifugation (10,000 rpm, 10 sec, 4° C.) to collect the supernatant, and thus the pre-treatment (pre-clean) was performed. The resultant supernatant was mixed with 1.7 μl (2 μg) of anti-Myc antibody (Invitrogen), subjected to overturned mixing at 4° C. for 3 hours, followed by adding 20 μl of protein G sepharose 4 FF that had been subjected to blocking with BSA, and then subjected to overturned mixing at 4° C. overnight. Thus, CREBL1 and ATF6 were respectively captured on protein G sepharose 4 FF. […]",
  "data": [
    {"molecule": "B1", "values": [
      {"measurement": "degradation of ATF6 (band by western blotting)", "value": "the band of ATF6 was reduced significantly"}
    ]}
  ]
}
